In article PMC8453484:

Tests used:
[1] = target: HECT domain of HUWE1 (residues 3993-4374), wild type (human) (UniProt Q7Z6Z7); assay: covalent labelling with an activity-based probe (SDS-PAGE, Coomassie); 10 μM E3 and 100 μM Ub-Prg in 50 mM HEPES, 100 mM NaCl, pH 8.0 at 30 °C, quenched with SDS loading dye; only the covalent (vinyl thioether) product is seen
[2] = target: HECT domain of NEDD4-1 (514-900) (UniProt P46934); assay: as above
UniProt P46934, sequence (P46934 933-1319): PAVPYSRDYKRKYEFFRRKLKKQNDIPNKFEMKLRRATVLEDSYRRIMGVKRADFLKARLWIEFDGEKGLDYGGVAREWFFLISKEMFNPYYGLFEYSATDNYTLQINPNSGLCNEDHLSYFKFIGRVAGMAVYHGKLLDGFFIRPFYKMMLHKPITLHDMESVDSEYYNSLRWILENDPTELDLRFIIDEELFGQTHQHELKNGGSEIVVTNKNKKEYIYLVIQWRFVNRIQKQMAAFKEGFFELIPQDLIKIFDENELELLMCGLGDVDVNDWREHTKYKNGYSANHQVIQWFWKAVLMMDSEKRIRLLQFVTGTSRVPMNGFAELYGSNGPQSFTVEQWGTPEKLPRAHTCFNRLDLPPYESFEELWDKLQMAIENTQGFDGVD

UniProt Q7Z6Z7, sequence (Q7Z6Z7 3993-4374): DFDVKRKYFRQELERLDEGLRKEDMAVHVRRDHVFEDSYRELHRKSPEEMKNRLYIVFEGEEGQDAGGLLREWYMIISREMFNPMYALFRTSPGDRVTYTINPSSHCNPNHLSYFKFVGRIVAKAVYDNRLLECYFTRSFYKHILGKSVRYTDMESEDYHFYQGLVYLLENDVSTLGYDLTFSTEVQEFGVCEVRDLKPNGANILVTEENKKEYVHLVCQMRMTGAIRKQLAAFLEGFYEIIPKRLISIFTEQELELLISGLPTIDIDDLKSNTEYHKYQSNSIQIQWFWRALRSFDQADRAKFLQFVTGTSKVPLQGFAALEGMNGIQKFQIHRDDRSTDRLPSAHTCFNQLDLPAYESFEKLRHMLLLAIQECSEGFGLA

ubiquitin-propargylamine
stoichiometry N [1]: 1
stoichiometry N [2]: 1
